Measurements from patent US20160116469A1 (INSTITUTE OF ARTHRITIS RESEARCH, published 2016).

Target: human TLR4 (human, UniProt O00206 24-839)
Test: cell-based or functional assay

Chain of human TLR4 (O00206 24-839): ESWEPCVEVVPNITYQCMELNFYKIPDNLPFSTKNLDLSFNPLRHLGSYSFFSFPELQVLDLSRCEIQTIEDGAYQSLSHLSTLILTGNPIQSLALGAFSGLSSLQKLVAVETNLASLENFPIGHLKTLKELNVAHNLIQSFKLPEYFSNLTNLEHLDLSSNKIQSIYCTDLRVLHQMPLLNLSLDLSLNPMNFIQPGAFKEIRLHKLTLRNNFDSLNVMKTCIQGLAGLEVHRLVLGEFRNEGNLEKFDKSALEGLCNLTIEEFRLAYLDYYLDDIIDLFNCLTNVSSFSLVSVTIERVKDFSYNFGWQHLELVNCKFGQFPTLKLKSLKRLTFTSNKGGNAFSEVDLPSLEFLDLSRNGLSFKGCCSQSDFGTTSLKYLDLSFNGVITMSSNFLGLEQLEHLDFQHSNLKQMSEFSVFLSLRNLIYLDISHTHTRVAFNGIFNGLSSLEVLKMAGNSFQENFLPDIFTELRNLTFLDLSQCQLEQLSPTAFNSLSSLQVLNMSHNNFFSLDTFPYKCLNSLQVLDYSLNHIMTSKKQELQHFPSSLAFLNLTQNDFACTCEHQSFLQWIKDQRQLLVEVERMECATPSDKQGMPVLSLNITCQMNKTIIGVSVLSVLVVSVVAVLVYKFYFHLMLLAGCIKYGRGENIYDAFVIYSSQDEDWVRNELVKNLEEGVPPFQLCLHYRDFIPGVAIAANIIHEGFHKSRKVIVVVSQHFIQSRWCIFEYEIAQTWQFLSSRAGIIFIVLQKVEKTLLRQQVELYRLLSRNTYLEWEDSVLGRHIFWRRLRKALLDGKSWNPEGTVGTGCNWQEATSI

## KSIAYLQMNSLK [PeptideX2]
  NF-κB-driven SEAP reporter, human TLR4-transfected HEK293 cells, response relative to E. coli K12 LPS at 100 ng/ml: 10 % of the response to E. coli K12 LPS
